{"source": "paper PMC6721692", "about": "“Extracellular Juxtamembrane Motif Critical for TrkB Preformed Dimer and Activation” (Cells, 2019)", "target": "the molecule itself", "assay": "native gel or EMSA; native PAGE (no SDS, no β-ME) of lysates of CHO-TrkBdelECD365-eGFP cells treated with vehicle, BDNF or MM12 (1.0 nM, 37 °C); Western blot with MM12"}
{"protein": "TrkBdelECD365-eGFP (human truncated TrkB lacking the ECD up to residue 365, EJM retained) (domain or fragment, EJM, transmembrane and intracellular parts retained; amplified from pGFP-hTrkB with the printed primers; The signal peptide of the vector pGFP-hTrkB is not described; also called hTrkBdelECD365-eGFP; TrkB lacking ECD365; source: CHO cells, stably transfected (CHO-TrkBdelECD365-eGFP), in lysate; not shown: eGFP, C-terminal, kept) not shown", "values": [{"measurement": "stoichiometry N", "value": 2}]}
